# Patent US12679878B2, “CRF2 receptor agonists and their use in therapy” (SANOFI, priority 2020, dated 2026)
# Starred links: 1 amine or outer side, 2 acyl side, 3 side chain; linkers in the order of their positions; H or OH if unused. Non-standard residues stand in square brackets, D forms with d. Groups on a side chain read outwards from the residue. No end group written: not given here. *: point of attachment. C18 diacid = O=C(O)CCCCCCCCCCCCCCCCC(=O)*; γGlu = O=C(O)[C@H](CCC(=O)[*:2])N[*:1]; Palmitoyl = CCCCCCCCCCCCCCCC(=O)*; AEEA = NCCOCCOCC(=O)O; Aib = CC(C)(N)C(=O)O
# Target: human corticotropin-releasing factor 2α (CRF2 α receptor) (human), Q13324
# Sequence (Q13324 20-411): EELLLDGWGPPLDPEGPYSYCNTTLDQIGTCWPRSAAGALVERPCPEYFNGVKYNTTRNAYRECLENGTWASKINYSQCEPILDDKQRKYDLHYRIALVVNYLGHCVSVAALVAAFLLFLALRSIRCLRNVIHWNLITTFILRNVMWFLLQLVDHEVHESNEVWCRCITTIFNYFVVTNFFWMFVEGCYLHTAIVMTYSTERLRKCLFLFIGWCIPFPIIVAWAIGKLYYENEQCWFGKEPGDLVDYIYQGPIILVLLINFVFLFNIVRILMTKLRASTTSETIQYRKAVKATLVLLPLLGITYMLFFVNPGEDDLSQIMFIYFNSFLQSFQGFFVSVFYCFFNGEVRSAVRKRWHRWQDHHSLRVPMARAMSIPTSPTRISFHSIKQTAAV
# Test: cell-based or functional assay
"EC50 [nM], 0% HSA","EC50 [nM], 0.1% HSA",Binder
36 nM,977 nM,Ac-IVLSLD[dV]PIKLK([AEEA-AEEA-γGlu-C18 diacid])QILLEQERQE[Aib]EREQAEKNEQILEQV-NH2 (SMILES CC[C@H](C)[C@H](NC(C)=O)C(=O)N[C@H](C(=O)N[C@@H](CC(C)C)C(=O)N[C@@H](CO)C(=O)N[C@@H](CC(C)C)C(=O)N[C@@H](CC(=O)O)C(=O)N[C@@H](C(=O)N1CCC[C@H]1C(=O)N[C@H](C(=O)N[C@@H](CCCCN)C(=O)N[C@@H](CC(C)C)C(=O)N[C@@H](CCCCNC(=O)COCCOCCNC(=O)COCCOCCNC(=O)CC[C@H](NC(=O)CCCCCCCCCCCCCCCCC(=O)O)C(=O)O)C(=O)N[C@@H](CCC(N)=O)C(=O)N[C@H](C(=O)N[C@@H](CC(C)C)C(=O)N[C@@H](CC(C)C)C(=O)N[C@@H](CCC(=O)O)C(=O)N[C@@H](CCC(N)=O)C(=O)N[C@@H](CCC(=O)O)C(=O)N[C@@H](CCCNC(=N)N)C(=O)N[C@@H](CCC(N)=O)C(=O)N[C@@H](CCC(=O)O)C(=O)NC(C)(C)C(=O)N[C@@H](CCC(=O)O)C(=O)N[C@@H](CCCNC(=N)N)C(=O)N[C@@H](CCC(=O)O)C(=O)N[C@@H](CCC(N)=O)C(=O)N[C@@H](C)C(=O)N[C@@H](CCC(=O)O)C(=O)N[C@@H](CCCCN)C(=O)N[C@@H](CC(N)=O)C(=O)N[C@@H](CCC(=O)O)C(=O)N[C@@H](CCC(N)=O)C(=O)N[C@H](C(=O)N[C@@H](CC(C)C)C(=O)N[C@@H](CCC(=O)O)C(=O)N[C@@H](CCC(N)=O)C(=O)N[C@H](C(N)=O)C(C)C)[C@@H](C)CC)[C@@H](C)CC)[C@@H](C)CC)C(C)C)C(C)C) [SEQ ID NO: 161]
0.03 nM,,IVLSLD[dV]PTKLK([γGlu-Palmitoyl])QKLLKQERQRKEREQAEKNKRILERV-NH2 (N-terminus assumed; SMILES CCCCCCCCCCCCCCCC(=O)N[C@@H](CCC(=O)NCCCC[C@H](NC(=O)[C@H](CC(C)C)NC(=O)[C@H](CCCCN)NC(=O)[C@@H](NC(=O)[C@@H]1CCCN1C(=O)[C@H](NC(=O)[C@H](CC(=O)O)NC(=O)[C@H](CC(C)C)NC(=O)[C@H](CO)NC(=O)[C@H](CC(C)C)NC(=O)[C@@H](NC(=O)[C@@H](N)[C@@H](C)CC)C(C)C)C(C)C)[C@@H](C)O)C(=O)N[C@@H](CCC(N)=O)C(=O)N[C@@H](CCCCN)C(=O)N[C@@H](CC(C)C)C(=O)N[C@@H](CC(C)C)C(=O)N[C@@H](CCCCN)C(=O)N[C@@H](CCC(N)=O)C(=O)N[C@@H](CCC(=O)O)C(=O)N[C@@H](CCCNC(=N)N)C(=O)N[C@@H](CCC(N)=O)C(=O)N[C@@H](CCCNC(=N)N)C(=O)N[C@@H](CCCCN)C(=O)N[C@@H](CCC(=O)O)C(=O)N[C@@H](CCCNC(=N)N)C(=O)N[C@@H](CCC(=O)O)C(=O)N[C@@H](CCC(N)=O)C(=O)N[C@@H](C)C(=O)N[C@@H](CCC(=O)O)C(=O)N[C@@H](CCCCN)C(=O)N[C@@H](CC(N)=O)C(=O)N[C@@H](CCCCN)C(=O)N[C@@H](CCCNC(=N)N)C(=O)N[C@H](C(=O)N[C@@H](CC(C)C)C(=O)N[C@@H](CCC(=O)O)C(=O)N[C@@H](CCCNC(=N)N)C(=O)N[C@H](C(N)=O)C(C)C)[C@@H](C)CC)C(=O)O) [SEQ ID NO: 18]
8.56 nM,28.9 nM,Ac-IVLSLD[dV]PIKLK([AEEA-AEEA-γGlu-C18 diacid])QILLEQERQE[Aib]EREQAETNKQILEQV-NH2 (SMILES CC[C@H](C)[C@H](NC(C)=O)C(=O)N[C@H](C(=O)N[C@@H](CC(C)C)C(=O)N[C@@H](CO)C(=O)N[C@@H](CC(C)C)C(=O)N[C@@H](CC(=O)O)C(=O)N[C@@H](C(=O)N1CCC[C@H]1C(=O)N[C@H](C(=O)N[C@@H](CCCCN)C(=O)N[C@@H](CC(C)C)C(=O)N[C@@H](CCCCNC(=O)COCCOCCNC(=O)COCCOCCNC(=O)CC[C@H](NC(=O)CCCCCCCCCCCCCCCCC(=O)O)C(=O)O)C(=O)N[C@@H](CCC(N)=O)C(=O)N[C@H](C(=O)N[C@@H](CC(C)C)C(=O)N[C@@H](CC(C)C)C(=O)N[C@@H](CCC(=O)O)C(=O)N[C@@H](CCC(N)=O)C(=O)N[C@@H](CCC(=O)O)C(=O)N[C@@H](CCCNC(=N)N)C(=O)N[C@@H](CCC(N)=O)C(=O)N[C@@H](CCC(=O)O)C(=O)NC(C)(C)C(=O)N[C@@H](CCC(=O)O)C(=O)N[C@@H](CCCNC(=N)N)C(=O)N[C@@H](CCC(=O)O)C(=O)N[C@@H](CCC(N)=O)C(=O)N[C@@H](C)C(=O)N[C@@H](CCC(=O)O)C(=O)N[C@H](C(=O)N[C@@H](CC(N)=O)C(=O)N[C@@H](CCCCN)C(=O)N[C@@H](CCC(N)=O)C(=O)N[C@H](C(=O)N[C@@H](CC(C)C)C(=O)N[C@@H](CCC(=O)O)C(=O)N[C@@H](CCC(N)=O)C(=O)N[C@H](C(N)=O)C(C)C)[C@@H](C)CC)[C@@H](C)O)[C@@H](C)CC)[C@@H](C)CC)C(C)C)C(C)C) [SEQ ID NO: 160]
0.12 nM,2.53 nM,Ac-IVLSLD[dV]PIKLK([AEEA-AEEA-γGlu-C18 diacid])QILLEQARQK[Aib]QREQAEKNKQILEQV-NH2 (SMILES CC[C@H](C)[C@H](NC(C)=O)C(=O)N[C@H](C(=O)N[C@@H](CC(C)C)C(=O)N[C@@H](CO)C(=O)N[C@@H](CC(C)C)C(=O)N[C@@H](CC(=O)O)C(=O)N[C@@H](C(=O)N1CCC[C@H]1C(=O)N[C@H](C(=O)N[C@@H](CCCCN)C(=O)N[C@@H](CC(C)C)C(=O)N[C@@H](CCCCNC(=O)COCCOCCNC(=O)COCCOCCNC(=O)CC[C@H](NC(=O)CCCCCCCCCCCCCCCCC(=O)O)C(=O)O)C(=O)N[C@@H](CCC(N)=O)C(=O)N[C@H](C(=O)N[C@@H](CC(C)C)C(=O)N[C@@H](CC(C)C)C(=O)N[C@@H](CCC(=O)O)C(=O)N[C@@H](CCC(N)=O)C(=O)N[C@@H](C)C(=O)N[C@@H](CCCNC(=N)N)C(=O)N[C@@H](CCC(N)=O)C(=O)N[C@@H](CCCCN)C(=O)NC(C)(C)C(=O)N[C@@H](CCC(N)=O)C(=O)N[C@@H](CCCNC(=N)N)C(=O)N[C@@H](CCC(=O)O)C(=O)N[C@@H](CCC(N)=O)C(=O)N[C@@H](C)C(=O)N[C@@H](CCC(=O)O)C(=O)N[C@@H](CCCCN)C(=O)N[C@@H](CC(N)=O)C(=O)N[C@@H](CCCCN)C(=O)N[C@@H](CCC(N)=O)C(=O)N[C@H](C(=O)N[C@@H](CC(C)C)C(=O)N[C@@H](CCC(=O)O)C(=O)N[C@@H](CCC(N)=O)C(=O)N[C@H](C(N)=O)C(C)C)[C@@H](C)CC)[C@@H](C)CC)[C@@H](C)CC)C(C)C)C(C)C) [SEQ ID NO: 157]
1.27 nM,27.4 nM,Ac-IVLSLD[dV]PIKLK([AEEA-AEEA-γGlu-C18 diacid])QILLEQERQE[Aib]QREQAEKNKQILEQV-NH2 (SMILES CC[C@H](C)[C@H](NC(C)=O)C(=O)N[C@H](C(=O)N[C@@H](CC(C)C)C(=O)N[C@@H](CO)C(=O)N[C@@H](CC(C)C)C(=O)N[C@@H](CC(=O)O)C(=O)N[C@@H](C(=O)N1CCC[C@H]1C(=O)N[C@H](C(=O)N[C@@H](CCCCN)C(=O)N[C@@H](CC(C)C)C(=O)N[C@@H](CCCCNC(=O)COCCOCCNC(=O)COCCOCCNC(=O)CC[C@H](NC(=O)CCCCCCCCCCCCCCCCC(=O)O)C(=O)O)C(=O)N[C@@H](CCC(N)=O)C(=O)N[C@H](C(=O)N[C@@H](CC(C)C)C(=O)N[C@@H](CC(C)C)C(=O)N[C@@H](CCC(=O)O)C(=O)N[C@@H](CCC(N)=O)C(=O)N[C@@H](CCC(=O)O)C(=O)N[C@@H](CCCNC(=N)N)C(=O)N[C@@H](CCC(N)=O)C(=O)N[C@@H](CCC(=O)O)C(=O)NC(C)(C)C(=O)N[C@@H](CCC(N)=O)C(=O)N[C@@H](CCCNC(=N)N)C(=O)N[C@@H](CCC(=O)O)C(=O)N[C@@H](CCC(N)=O)C(=O)N[C@@H](C)C(=O)N[C@@H](CCC(=O)O)C(=O)N[C@@H](CCCCN)C(=O)N[C@@H](CC(N)=O)C(=O)N[C@@H](CCCCN)C(=O)N[C@@H](CCC(N)=O)C(=O)N[C@H](C(=O)N[C@@H](CC(C)C)C(=O)N[C@@H](CCC(=O)O)C(=O)N[C@@H](CCC(N)=O)C(=O)N[C@H](C(N)=O)C(C)C)[C@@H](C)CC)[C@@H](C)CC)[C@@H](C)CC)C(C)C)C(C)C) [SEQ ID NO: 159]
0.42 nM,5.63 nM,Ac-IVLSLD[dV]PIKLK([AEEA-AEEA-γGlu-C18 diacid])QILLEQERQK[Aib]QREQAEKNKQILEQV-NH2 (SMILES CC[C@H](C)[C@H](NC(C)=O)C(=O)N[C@H](C(=O)N[C@@H](CC(C)C)C(=O)N[C@@H](CO)C(=O)N[C@@H](CC(C)C)C(=O)N[C@@H](CC(=O)O)C(=O)N[C@@H](C(=O)N1CCC[C@H]1C(=O)N[C@H](C(=O)N[C@@H](CCCCN)C(=O)N[C@@H](CC(C)C)C(=O)N[C@@H](CCCCNC(=O)COCCOCCNC(=O)COCCOCCNC(=O)CC[C@H](NC(=O)CCCCCCCCCCCCCCCCC(=O)O)C(=O)O)C(=O)N[C@@H](CCC(N)=O)C(=O)N[C@H](C(=O)N[C@@H](CC(C)C)C(=O)N[C@@H](CC(C)C)C(=O)N[C@@H](CCC(=O)O)C(=O)N[C@@H](CCC(N)=O)C(=O)N[C@@H](CCC(=O)O)C(=O)N[C@@H](CCCNC(=N)N)C(=O)N[C@@H](CCC(N)=O)C(=O)N[C@@H](CCCCN)C(=O)NC(C)(C)C(=O)N[C@@H](CCC(N)=O)C(=O)N[C@@H](CCCNC(=N)N)C(=O)N[C@@H](CCC(=O)O)C(=O)N[C@@H](CCC(N)=O)C(=O)N[C@@H](C)C(=O)N[C@@H](CCC(=O)O)C(=O)N[C@@H](CCCCN)C(=O)N[C@@H](CC(N)=O)C(=O)N[C@@H](CCCCN)C(=O)N[C@@H](CCC(N)=O)C(=O)N[C@H](C(=O)N[C@@H](CC(C)C)C(=O)N[C@@H](CCC(=O)O)C(=O)N[C@@H](CCC(N)=O)C(=O)N[C@H](C(N)=O)C(C)C)[C@@H](C)CC)[C@@H](C)CC)[C@@H](C)CC)C(C)C)C(C)C) [SEQ ID NO: 158]
